Experimental data reported in patent publication US20220356235A1 (STICHTING SANQUIN BLOEDVOORZIENING, published 2022).

B1: FH complexed with anti-FH.07 Fab′ fragment (other, human)
chain: EDCNELPPRRNTEILTGSWSDQTYPEGTQAIYKCRPGYRSLGNVIMVCRKGEWVALNPLRKCQKRPCGHPGDTPFGTFTLTGGNVFEYGVKAVYTCNEGYQLLGEINYRECDTDGWTNDIPICEVVKCLPVTAPENGKIVSSAMEPDREYHFGQAVRFVCNSGYKIEGDEEMHCSDDGFWSKEKPKCVEISCKSPDVINGSPISQKIIYKENERFQYKCNMGYEYSERGDAVCTESGWRPLPSCEEKSCDNPYIPNGDYSPLRIKHRTGDEITYQCRNGFYPATRGNTAKCTSTGWIPAPRCTLKPCDYPDIKHGGLYHENMRRPYFPVAVGKYYSYYCDEHFETPSGSYWDHIHCTQDGWSPAVPCLRKCYFPYLENGYNQNYGRKFVQGKSIDVACHPGYALPKAQTTVTCMENGWSPTPRCIRVKTCSKSSIDIENGFISESQYTYALKEKAKYQCKLGYVTADGETSGSITCGKDGWSAQPTCIKSCDIPVFMNARTKNDFTWFKLNDTLDYECHDGYESNTGSTTGSIVCGYNGWSDLPICYERECELPKIDVHLVPDRKKDQYKVGEVLKFSCKPGFTIVGPNSVQCYHFGLSPDLPICKEQVQSCGPPPELLNGNVKEKTKEEYGHSEVVEYYCNPRFLMKGPNKIQCVDGEWTTLPVCIVEESTCGDIPELEHGWAQLSSPPYYYGDSVEFNCSESFTMIGHRSITCIHGVWTQLPQCVAIDKLKKCKSSNLIILEEHLKNKKEFDHNSNIRYRCRGKEGWIHTVCINGRWDPEVNCSMAQIQLCPPPPQIPNSHNMTTTLNYRDGEKVSVLCQENYLIQEGEEITCKDGRWQSIPLCVEKIPCSQPPQIEHGTINSSRSSQESYAHGTKLSYTCEGGFRISEENETTCYMGKWSSPPQCEGLPCKSPPEISHGVVAHMSDSYQYGEEVTYKCFEGFGIDGPAIAKCLGEKWSHPPSCIKTDCLSLPSFENAIPMGEKKDVYKAGEQVTYTCATYYKMDGASNVTCINSRWTGRPTCRDTSCVNPPTVQNAYIVSRQMSKYPSGERVRYQCRSPYEMFGDEEVMCLNGNWTEPPQCKDSTGKCGPPPPIDNGDITSFPLSVYAPASSVEYQCQNLYQLEGNKRITCRNGQWSEPPKCLHPCVISREIMENYNIALRWTAKQKLYSRTGESVEFVCKRGYRLSSRSHTLRTTCWDGKLEYPTCAKR
VH: QVQLQQSGPGLVQPSQSLSITCTVSDFSLARYGVHWIRQSPGKGLEWLGVIWSGGTADYNAAFISRLNINKDNSKSQVFFKMNSLQANDTAIYYCARNFGNYAVDYWGQGTS
VL: QIVLSQSPTFLSASPGEKVTVTCRASSSVKYMHWYQQKPGASPKPWIFATSNLASGVPARFSGSGSGTSYSLTISRVEAEDAATYYCQQWSIIPPTFGNGTKLELK
notes: mature; also called FH in presence of 10 µM anti-FH.07 Fab′
B2: FH complexed with anti-FHR-1 8E4 Fab′ fragment (other, human)
chain: EDCNELPPRRNTEILTGSWSDQTYPEGTQAIYKCRPGYRSLGNVIMVCRKGEWVALNPLRKCQKRPCGHPGDTPFGTFTLTGGNVFEYGVKAVYTCNEGYQLLGEINYRECDTDGWTNDIPICEVVKCLPVTAPENGKIVSSAMEPDREYHFGQAVRFVCNSGYKIEGDEEMHCSDDGFWSKEKPKCVEISCKSPDVINGSPISQKIIYKENERFQYKCNMGYEYSERGDAVCTESGWRPLPSCEEKSCDNPYIPNGDYSPLRIKHRTGDEITYQCRNGFYPATRGNTAKCTSTGWIPAPRCTLKPCDYPDIKHGGLYHENMRRPYFPVAVGKYYSYYCDEHFETPSGSYWDHIHCTQDGWSPAVPCLRKCYFPYLENGYNQNYGRKFVQGKSIDVACHPGYALPKAQTTVTCMENGWSPTPRCIRVKTCSKSSIDIENGFISESQYTYALKEKAKYQCKLGYVTADGETSGSITCGKDGWSAQPTCIKSCDIPVFMNARTKNDFTWFKLNDTLDYECHDGYESNTGSTTGSIVCGYNGWSDLPICYERECELPKIDVHLVPDRKKDQYKVGEVLKFSCKPGFTIVGPNSVQCYHFGLSPDLPICKEQVQSCGPPPELLNGNVKEKTKEEYGHSEVVEYYCNPRFLMKGPNKIQCVDGEWTTLPVCIVEESTCGDIPELEHGWAQLSSPPYYYGDSVEFNCSESFTMIGHRSITCIHGVWTQLPQCVAIDKLKKCKSSNLIILEEHLKNKKEFDHNSNIRYRCRGKEGWIHTVCINGRWDPEVNCSMAQIQLCPPPPQIPNSHNMTTTLNYRDGEKVSVLCQENYLIQEGEEITCKDGRWQSIPLCVEKIPCSQPPQIEHGTINSSRSSQESYAHGTKLSYTCEGGFRISEENETTCYMGKWSSPPQCEGLPCKSPPEISHGVVAHMSDSYQYGEEVTYKCFEGFGIDGPAIAKCLGEKWSHPPSCIKTDCLSLPSFENAIPMGEKKDVYKAGEQVTYTCATYYKMDGASNVTCINSRWTGRPTCRDTSCVNPPTVQNAYIVSRQMSKYPSGERVRYQCRSPYEMFGDEEVMCLNGNWTEPPQCKDSTGKCGPPPPIDNGDITSFPLSVYAPASSVEYQCQNLYQLEGNKRITCRNGQWSEPPKCLHPCVISREIMENYNIALRWTAKQKLYSRTGESVEFVCKRGYRLSSRSHTLRTTCWDGKLEYPTCAKR
VH: QVQLKQSGPGLVQPSQSLSITCTVSDFSLTNSGVHWVRQSPGKGLEWLGVIWSGGTTEYNAAFMSRLTITKDNSKSQVFFKMNSLLVDDTGIYYCARNFGNYAVDYWGQGTSVTVSS
VL: QIVLSQSPAILSASPGEKVTMTCRASSSVRYMHWYQQKAGSSPTAWIFATSNLASGVPPRFSGSGSGTSYSLTISRVEAEDAATYYCQQWGTKPPTFGAGTKLELK
notes: mature; also called FH in presence of 10 µM anti-FHR-1 8E4 Fab′
B3: FH complexed with anti-FHR-1 3B4 Fab′ fragment (other, human)
chain: EDCNELPPRRNTEILTGSWSDQTYPEGTQAIYKCRPGYRSLGNVIMVCRKGEWVALNPLRKCQKRPCGHPGDTPFGTFTLTGGNVFEYGVKAVYTCNEGYQLLGEINYRECDTDGWTNDIPICEVVKCLPVTAPENGKIVSSAMEPDREYHFGQAVRFVCNSGYKIEGDEEMHCSDDGFWSKEKPKCVEISCKSPDVINGSPISQKIIYKENERFQYKCNMGYEYSERGDAVCTESGWRPLPSCEEKSCDNPYIPNGDYSPLRIKHRTGDEITYQCRNGFYPATRGNTAKCTSTGWIPAPRCTLKPCDYPDIKHGGLYHENMRRPYFPVAVGKYYSYYCDEHFETPSGSYWDHIHCTQDGWSPAVPCLRKCYFPYLENGYNQNYGRKFVQGKSIDVACHPGYALPKAQTTVTCMENGWSPTPRCIRVKTCSKSSIDIENGFISESQYTYALKEKAKYQCKLGYVTADGETSGSITCGKDGWSAQPTCIKSCDIPVFMNARTKNDFTWFKLNDTLDYECHDGYESNTGSTTGSIVCGYNGWSDLPICYERECELPKIDVHLVPDRKKDQYKVGEVLKFSCKPGFTIVGPNSVQCYHFGLSPDLPICKEQVQSCGPPPELLNGNVKEKTKEEYGHSEVVEYYCNPRFLMKGPNKIQCVDGEWTTLPVCIVEESTCGDIPELEHGWAQLSSPPYYYGDSVEFNCSESFTMIGHRSITCIHGVWTQLPQCVAIDKLKKCKSSNLIILEEHLKNKKEFDHNSNIRYRCRGKEGWIHTVCINGRWDPEVNCSMAQIQLCPPPPQIPNSHNMTTTLNYRDGEKVSVLCQENYLIQEGEEITCKDGRWQSIPLCVEKIPCSQPPQIEHGTINSSRSSQESYAHGTKLSYTCEGGFRISEENETTCYMGKWSSPPQCEGLPCKSPPEISHGVVAHMSDSYQYGEEVTYKCFEGFGIDGPAIAKCLGEKWSHPPSCIKTDCLSLPSFENAIPMGEKKDVYKAGEQVTYTCATYYKMDGASNVTCINSRWTGRPTCRDTSCVNPPTVQNAYIVSRQMSKYPSGERVRYQCRSPYEMFGDEEVMCLNGNWTEPPQCKDSTGKCGPPPPIDNGDITSFPLSVYAPASSVEYQCQNLYQLEGNKRITCRNGQWSEPPKCLHPCVISREIMENYNIALRWTAKQKLYSRTGESVEFVCKRGYRLSSRSHTLRTTCWDGKLEYPTCAKR
VH: QVQLRQSGPGLVQPSQSLSITCTVSGFSLTNYGVYWVRQSPGKGLEWLGVIWSGGTTDYSAAFISRLSISKDNSKSQVFFKMNSLQADDTAIYYCARNFGNYAMDYWGQGTSVTVSS
VL: QIVLSQSPTILSASPGEKVTMTCRASSSVTYMHWYQQKPGSSPKPWIYATSNLASGVPARFSGSGSGTSYSLTISRVEAEDAATYYCQQRSSSNPLTFGAGTKLELK
notes: mature; also called FH in presence of 10 µM anti-FHR-1 3B4 Fab′

Key:
C3b [1] = biological target: T1, C3b (UniProt P01024 23-667; P01024 749-1663, limits assumed); test: SPR on immobilised C3b, FH with Fab′ against FH alone
T1 construct: C3b has two chains (beta and alpha') derived from C3; also called purified C3b (Complement Technologies)
T1 sequence (P01024 23-667 limits assumed, chain 1 of 2): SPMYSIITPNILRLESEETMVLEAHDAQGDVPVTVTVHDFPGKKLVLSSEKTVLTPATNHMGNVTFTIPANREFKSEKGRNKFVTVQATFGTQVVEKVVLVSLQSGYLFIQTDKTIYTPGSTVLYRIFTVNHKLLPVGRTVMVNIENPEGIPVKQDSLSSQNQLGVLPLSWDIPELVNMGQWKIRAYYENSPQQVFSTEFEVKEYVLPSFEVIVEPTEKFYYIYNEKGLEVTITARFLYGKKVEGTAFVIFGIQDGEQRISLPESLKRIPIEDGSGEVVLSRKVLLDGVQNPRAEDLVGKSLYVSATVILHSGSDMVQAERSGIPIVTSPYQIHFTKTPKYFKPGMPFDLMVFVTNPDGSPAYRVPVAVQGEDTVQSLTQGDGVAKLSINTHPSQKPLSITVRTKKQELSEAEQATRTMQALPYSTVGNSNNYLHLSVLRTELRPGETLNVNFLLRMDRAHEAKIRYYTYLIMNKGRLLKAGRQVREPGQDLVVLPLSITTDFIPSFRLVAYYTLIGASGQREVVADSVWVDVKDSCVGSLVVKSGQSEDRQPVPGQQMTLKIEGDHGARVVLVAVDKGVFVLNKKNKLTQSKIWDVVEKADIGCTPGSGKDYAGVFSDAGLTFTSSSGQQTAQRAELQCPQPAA
T1 sequence (P01024 749-1663 limits assumed, chain 2 of 2): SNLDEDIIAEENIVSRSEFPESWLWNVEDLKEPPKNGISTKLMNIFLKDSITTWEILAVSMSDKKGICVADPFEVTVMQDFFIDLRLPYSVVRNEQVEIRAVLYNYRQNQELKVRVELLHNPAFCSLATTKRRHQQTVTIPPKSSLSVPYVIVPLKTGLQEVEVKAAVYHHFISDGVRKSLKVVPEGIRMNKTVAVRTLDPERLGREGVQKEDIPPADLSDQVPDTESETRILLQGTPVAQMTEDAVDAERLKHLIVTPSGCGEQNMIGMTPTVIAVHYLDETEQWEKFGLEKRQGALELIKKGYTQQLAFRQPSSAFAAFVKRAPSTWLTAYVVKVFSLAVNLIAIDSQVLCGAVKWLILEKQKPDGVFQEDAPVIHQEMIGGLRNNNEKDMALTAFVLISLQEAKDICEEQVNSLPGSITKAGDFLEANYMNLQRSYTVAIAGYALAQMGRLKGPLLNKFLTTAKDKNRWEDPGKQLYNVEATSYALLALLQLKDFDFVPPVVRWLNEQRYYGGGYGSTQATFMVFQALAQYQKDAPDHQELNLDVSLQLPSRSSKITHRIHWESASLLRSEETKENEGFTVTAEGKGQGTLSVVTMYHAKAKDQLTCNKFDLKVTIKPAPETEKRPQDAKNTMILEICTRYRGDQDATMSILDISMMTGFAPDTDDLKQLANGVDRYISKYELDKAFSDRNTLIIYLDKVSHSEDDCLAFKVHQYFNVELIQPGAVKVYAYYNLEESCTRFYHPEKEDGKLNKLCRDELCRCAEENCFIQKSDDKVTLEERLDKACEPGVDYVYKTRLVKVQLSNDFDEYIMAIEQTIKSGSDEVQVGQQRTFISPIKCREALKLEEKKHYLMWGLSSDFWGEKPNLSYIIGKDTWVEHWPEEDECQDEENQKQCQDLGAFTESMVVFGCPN
Method: (§1) Binding of FH to C3b in the presence of the anti-FH moAbs was determined by surface plasmon resonance using a Biacore T200 instrument (GE Healthcare, Little Chalfont, UK). Purified C3b (Complement Technologies) was immobilized onto a flow cell of a CM5 Biacore Sensor Chip (GE Healthcare) using standard amine coupling. The remaining flow cell was used as reference surface and prepared by performing a coupling reaction without the addition of any protein. A response of 2000 response units (RUs) was obtained after coupling with C3b. SPR experiments were performed at 37° C. using a flow rate of 10 μl/min and in phosphate buffered saline pH 7.4 (PBS, Orphi Farma) supplemented with 0.01% (w/v) Tween-20 (Merck) (PBS-T).
(§2) To determine the effect of the antibodies without interference of possible cross-linking via the moAb, recombinantly produced Fab′ fragments of the moAbs were used. Fab′ fragments were mixed with plasma purified FH (pdFH). […] Each Fab′ fragment was also injected without addition of FH to determine any interactions of the Fab′ fragments with the surfaces. The pdFH injection was followed by a dissociation of 60 seconds and surface was regenerated between each cycle by a single injection of 1 M NaCl (Merck).

C3b [2] = biological target: T1, C3b; test: SPR on immobilised C3b, equilibrium analysis, FH with Fab′ against FH alone
Method: as §1, §2

C3b [3] = biological target: T1, C3b; test: SPR, C3b amine-coupled to CM5 chip, FH (5-0.01953 µM) injected with 10 µM anti-FH.07 Fab′, equilibrium analysis; FH with anti-FH.07 Fab′
Method: as §1, §2
(§3) Data was analyzed using Scrubber 2 (Biologic Software) affinities were determined by equilibrium analysis.

C3b [4] = biological target: T1, C3b; test: SPR, C3b amine-coupled to CM5 chip, FH (5-0.01953 µM) injected with 10 µM anti-FHR-1 8E4 Fab′, equilibrium analysis; FH with anti-FHR-1 8E4 Fab′
Method: as §1, §2

C3b [5] = biological target: T1, C3b; test: SPR, C3b amine-coupled to CM5 chip, FH (5-0.01953 µM) injected with 10 µM anti-FHR-1 3B4 Fab′, equilibrium analysis; FH with anti-FHR-1 3B4 Fab′
Method: as §1, §2, §3

Binder | fold increase of measured RU against FH alone (C3b [1]) [fold] | increase in affinity of FH for C3b against FH alone (times) (C3b [2]) | Kd (C3b [3]) [nM] | Kd (C3b [4]) [nM] | Kd (C3b [5]) [nM]
B1 | ≥ 2 | 2.7 | 2200 | – | –
B2 | ≥ 2 | 3.6 | – | 1660 | –
B3 | ≥ 2 | 3.2 | – | – | 1900
